# Measurements published in PMC2211892.
# B1: C1 esterase inhibitor (C1-INH), purified (natural protein)
# chain: NPNATSSSSQDPESLQDRGEGKVATTVISKMLFVEPILEVSSLPTTNSTTNSATKITANTTDEPTTQPTTEPTTQPTIQPTQPTTQLPTDSPTQPTTGSFCPGPVTLCSDLESHSTEAVLGDALVDFSLKLYHAFSAMKKVETNMAFSPFSIASLLTQVLLGAGENTKTNLESILSYPKDFTCVHQALKGFTTKGVTSVSQIFHSPDLAIRDTFVNASRTLYSSSPRVLSNNSDANLELINTWVAKNTNNKISRLLDSLPSDTRLVLLNAIYLSAKWKTTFDPKKTRMEPFHFKNSVIKVPMMNSKKYPVAHFIDQTLKAKVGQLQLSHNLSLVILVPQNLKHRLEDMEQALSPSVFKAIMEKLEMSKFQPTLLTLPRIKVTTSQDMLSIMEKLEFFDFSYDLNLCGLTEDPDLQVSAMQHQTVLELTETGVEAAAASAISVARTLLVFEVQQPFLFVLWDQQHKFPVFMGRVYDPRA
# Biological target: StcE′ E435D-His (Escherichia coli O157:H7) (UniProt O82882)
# Experiment: flow cytometry on cells
binder,measurement,value
B1,fold level of C1-INH on erythrocyte surfaces against StcE′-His,22 fold
